Results published in publication PMC5016095 (2016).

Legend:
α-synuclein S129E = α-synuclein S129E (Homo sapiens, UniProt P37840); assay: fluorescence spectroscopy
α-synuclein (oligomeric) = α-synuclein (oligomeric) (Homo sapiens, UniProt P37840, oligomeric, pseudo-wildtype tryptophan mutant); assay: fluorescence spectroscopy

B1: TOM20 C-terminal cytosolic fragment (protein)
chain: DRKRRSDPNFKNRLRERRKKQKLAKERAGLSKLPDLKDAEAVQKFFLEEIQLGEELLAQGDYEKGVDHLTNAIAVCGQPQQLLQVLQQTLPPPVFQMLLTKLPTISQRIVSAQSLAEDDVE
Q: B1 was tested. Which Kd (α-synuclein S129E) did it give?
A: ~5 µM

Q: And the Kd (α-synuclein (oligomeric))?
A: ~5 µM
